The target of assay [1] is GPC3ΔGPI-FLAG重组蛋白 (GPC3 without its GPI region, C-terminal FLAG tag) (Homo sapiens (Human)) (UniProt P51654). The experiment in a line: ELISA on coated GPC3ΔGPI-FLAG, antibody pre-treated 2 h at 90℃, reference 4℃.
Assay [2] shares this target. The experiment in a line: ELISA on coated GPC3ΔGPI-FLAG, antibody pre-treated 2 h at 70℃, reference 4℃.
For assay [3], the target named is mCherry-GPC3 (mCherry fused to the N-terminus of GPC3, stably expressed on HEK293T cells) (UniProt P51654). Kind of assay: immunofluorescence colocalisation on HEK293T cells expressing mCherry-GPC3, confocal microscopy.
Assay [4] has as its target GPC3ΔGPI-FLAG重组蛋白 (GPC3 without its GPI region, C-terminal FLAG tag) (Homo sapiens (Human)) (UniProt P51654). The experiment in a line: ELISA on coated GPC3ΔGPI-FLAG, nanobody pre-treated 2 h at 90℃, reference 4℃.
Assay [5] has the same target. The experiment in a line: ELISA on coated GPC3ΔGPI-FLAG, nanobody pre-treated 2 h at 70℃, reference 4℃.

As for “HN3-hFc融合抗体 (known GPC3 nanobody HN3 fused to human Fc, bought from Creative Biolabs) (Fc fusion)”, the 抗原结合能力下降 (fall of OD450 against the 4℃ sample) in assay [1] was 58.3%; in assay [2], 42.9%.

B1: G11纳米抗体 (GPC3 nanobody G11, His-tagged, from pET22b-G11-His) (VHH, not shown: small tags and cut ends)
VHH: QVQLVESGGALVQPGGSLRLSCAASSSDFSRNALRWYRQAPGKEREWVCGINWTGSGYAYEDSVKGRFTCSRDDARNTVYLQLNSLKPEDTAVYYCAPLACSNCFPYKHYVYWGQGTQVTVSS
Turning to B1, the 皮尔森相关系数 (Pearson correlation of mCherry and Alexa Fluor 488 signals) in assay [3] is 0.929. Besides, the 抗原结合能力下降 (fall of OD450 against the 4℃ sample) in assay [4] is 30.8%; in assay [5], 16.7%.

(Values after patent CN111909274A.)
